# Earlier results as cited in patent US8901073B2, “Compounds and their effects on feeding behaviour” (Imperial Innovations Limited, priority 2011, dated 2014).
# Details: endogenous PYY in circulation; cited from earlier work
substance,measurement,value
"endogenous PYY: peptide YY polypeptide, a hormone secreted into the blood by cells lining the lower small intestine and the colon",half life,several minutes
